# According to IntAct's records for PubMed 36233334:
# B1: Cilia- and flagella-associated protein 418 (Homo sapiens), Q96NL8 (parent)
# chain: MAEDLDELLDEVESKFCTPDLLRRGMVEQPKGCGGGTHSSDRNQAKAKETLRSTETFKKEDDLDSLINEILEEPNLDKKPSKLKSKSSGNTSVRASIEGLGKSCSPVYLGGSSIPCGIGTNISWRACDHLRCIACDFLVVSYDDYMWDKSCDYLFFRNNMPEFHKLKAKLIKKKGTRAYACQCSWRTIEEVTDLQTDHQLRWVCGKH
# partner: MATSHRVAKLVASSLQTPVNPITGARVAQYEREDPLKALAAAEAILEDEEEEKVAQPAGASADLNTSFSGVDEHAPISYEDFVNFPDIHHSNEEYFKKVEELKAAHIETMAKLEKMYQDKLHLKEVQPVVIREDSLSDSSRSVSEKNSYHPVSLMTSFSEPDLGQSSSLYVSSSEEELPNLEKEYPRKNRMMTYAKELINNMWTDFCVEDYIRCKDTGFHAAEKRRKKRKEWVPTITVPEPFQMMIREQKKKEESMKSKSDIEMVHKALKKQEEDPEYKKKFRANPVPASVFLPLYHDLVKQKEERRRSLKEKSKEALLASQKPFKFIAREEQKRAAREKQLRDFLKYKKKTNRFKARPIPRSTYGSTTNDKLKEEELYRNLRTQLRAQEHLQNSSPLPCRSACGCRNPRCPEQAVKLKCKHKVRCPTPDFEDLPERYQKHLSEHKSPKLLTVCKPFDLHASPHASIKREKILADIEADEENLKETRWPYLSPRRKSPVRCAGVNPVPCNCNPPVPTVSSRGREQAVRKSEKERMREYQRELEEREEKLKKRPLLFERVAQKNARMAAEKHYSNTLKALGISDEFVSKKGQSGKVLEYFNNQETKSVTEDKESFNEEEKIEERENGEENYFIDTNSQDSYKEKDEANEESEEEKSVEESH
# Variants of: B1
# Details: with FAM161A
row,Variant,effect of a mutation on the interaction
1,MAEDLDELLDEVESKFCTPDLLRRGMVEQPKGCGGGTHSSDRNQAKAKETLRSTETFKKEDDLDSLINEILEEPNLDKKPSKLKSKSSGNTSVRASIEGLGKSCSPVYLGGSSIPCGIGTNISWRACDHLRCIACDFLVVSYDDYMWDKSCDYLFFRNNMPEFHKLKAKLIKKKGTRAYACRCSWRTIEEVTDLQTDHQLRWVCGKH [Q182R],with no effect
2,MAEDLDELLDEVESKFCTPDLLRRGMVEQPKGCGGGTHSSDRNQAKAKETLRSTETFKKEDDLDSLINEILEEPNLDKKPSKLKSKSSGNTSVRASIEGLGKSCSPVYLGGSSIPCGIGTNISWRACDHLRCIACDFLVVSYDDYMWDKSCDYLFFRNNMPEFHKLKAKLIKKKGTWAYACQCSWRTIEEVTDLQTDHQLRWVCGKH [R177W],with no effect
